How the values were obtained:
[1] = target: HA of A/California/04/2009 (H1N1pdm09) (influenza A virus A/California/04/2009 (H1N1pdm09))
[2] = target: HA of Perth/16 (H3N2) virus (influenza A virus A/Perth/16/2009 (H3N2)); experiment: cell-based or functional assay
[3] = target: HA of A/California/04/2009 (H1N1pdm09) (influenza A virus A/California/04/2009 (H1N1pdm09)); experiment: cell-based or functional assay
[4] = target: three viruses, CA04, Egypt, and Anhui/1; experiment: cell-based or functional assay
[5] = target: recombinant HA protein of A/Netherland/219/2003 (H7N7) (influenza A virus A/Netherland/219/2003 (H7N7))
[6] = target: recombinant HA protein of A/Perth/16/2009 (H3N2) (influenza A virus A/Perth/16/2009 (H3N2))
[7] = target: recombinant HA protein of A/California/07/2009 (H1N1pdm09) (influenza A virus A/California/07/2009 (H1N1pdm09))
[8] = target: recombinant HA protein of Egypt (H5N1 type) (influenza A virus, 'Egypt' (H5N1))

CR9114 (antibody)
apparent rate constant k obs, fold over that of S9-1-10/5-1 [1]: 11.6 fold
IC 50, neutralization test 1 (Pre), CPE on MDCK cells [2]: 25 µg/mL
IC 50, neutralization test 1 (Pre), CPE on MDCK cells [3]: 7.4 µg/mL

B1: S9-1-10/5-1 (antibody, V domains shown)
VH: QLHLQESGPGLLKPSATLSLTCTVSGGSMNNYYWSWVRQAPGKGLEWIGYIFHSGSTNYSPPLKSRVTISIDTATNQFFLRLNSVTAADTAVYYCARMSRGVFSSSRFFGLDVWGRGTAVAVSS
VL: EIVLTQSPATLSVSPGERATLSCRASQSVASNLAWYQQKPGQAPRLLISAASTRATDIPARFSGSGSGTEFTLTISSLQSEDFAVYYCQQYNNWLSFTFGPGTKVDMKG
IC 50, neutralization test 2 (Post), CPE on MDCK cells [4]: 0.55 to 8.8 µg/mL
Kd [5]: 0.9 nM
Kd [6]: 34 nM
Kd [7]: 0.0085 nM
Kd [8]: 0.14 nM
